Data published in US11371056B2, “HPPD variants and methods of use” (BASF Agricultural Solutions Seed US LLC, priority 2017, dated 2022).

System: Pseudomonas fluorescens HPPD polypeptide (wild-type and mutants)
Assay: Coupled HPPD activity assay: turnover and residual turnover in crude HPPD polypeptide extracts with and without Cmpd. 1
Type: biochemical
Details: for Residual turnover [%]: 100 μM Cmpd. 1, normalised to turnover without inhibitor; for Turnover: absence of Cmpd. 1; for Turnover / Residual turnover: changes in absorbance (OD) at 320 nm in the coupled assay, 30 min; for Residual turnover: presence of 100 μM Cmpd. 1
Experimental: For the generation of crude HPPD polypeptide extract in micro titer plates (MTP) for the determination of residual activity in inhibition assays, cells were grown in 40 or 150 μl LB medium containing 1% Glucose (Merck, Darmstadt, Germany) and 100 μg/ml ampicillin in a standard 96 well plate (Thermo Fisher Scientific, Waltham, USA) incubated for about 18 h in a humidity incubator at 37° C. 30 μl of this starter culture were added to 600 μl LB medium containing 100 μg/ml ampicillin and 150 mM Hepes (Merck, Darmstadt, Germany) as inoculum for the expression culture in 96 well plates (2 ml deep wells; HJ Bioanalytik, Erkelenz, Germany). The plates were sealed by an aluminium foil, and cells were incubated for 5 h at 37° C. on a plate shaker at 750 rpm. The expression was induced by addition of IPTG in a final concentration of 1 mM followed by further sealed incubation for about 18 h at 30° C. on a plate shaker at 750 rpm.
Cells were harvested by centrifugation at 4° C., 2500 g for 15 min discarding the supernatant. Cell pellets were stored at −80° C. and lysed in 250 μl 1× BugBuster® (Merck, Darmstadt, Germany) in 140 mM Tris (pH 7.8), with 1:25000 diluted BNase® (Qiagen, Hilden, Germany) by incubation of the resuspended cells for 30 min at 4° C. and 1000 rpm. Lysates were clarified by centrifugation for 15 min at 4° C., 2500 g, and 150 μl supernatant were transferred in standard 96 well plate (Thermo Fisher Scientific, Waltham, USA) for subsequent testing in quadruplets.
The activity of HPPD polypeptides was determined in absence or presence of HPPD inhibitors using the coupled HPPD activity assay (FIG. 1).
For the determination of the residual activity, the apparent kinetic constant (kapp) of the determined substrate conversion was measured as kinetic changes in absorbance (OD) at 320 nm in a coupled assay, in that homogentisate (HGA) formed by HPPD from HPP is directly converted into the well absorbing molecule maleylacetoacetate (MAA) by a second enzyme homogentisate dioxygenase (HGD), applied in excess uniformly in all assays (see FIG. 1). The measurements were performed in 384 micro titer plates (Greiner Bio-One GmbH, Frickenhausen, Germany) by plate readers (Tecan infinite M1000 or M1000PRO, Tecan, Männedorf, Switzerland). The kcat/kM ratio of an enzymatic activity is proportional to the apparent kinetic constant kapp and is proportional to kcat/kM*[E] ([E]=enzyme concentration). […] As both kapp measurements in the presence and absence of inhibitor were performed by use of the identical enzyme sample, crude or purified, and thereby at the same enzyme concentration, the enzyme concentration eliminates from the calculation of residual activity and the ratio of both kapp directly indicates the change of kM due to the inhibition.
The assay solution used for determination of residual activities in raw HPPD polypeptide samples was composed by 200 mM sodium phosphate (Merck, Darmstadt, Germany, pH 7.0), 5 mM MgCl2 (Merck, Darmstadt, Germany), 20 mM ascorbate (Sigma-Aldrich, St. Louis, USA), 1 mM DTT (Sigma-Aldrich, St. Louis, USA), 0.1% Pluronic F-68 (Sigma-Aldrich, St. Louis, USA), 40 μM FeSO4 (Sigma-Aldrich, St. […] Louis, USA) and equilibrated for 20 min on ice.

B1: SEQ ID NO:7 (protein)
chain: MADLYENPMGLMGFEFIEFASPTPGTLEPIFEIMGFTKVATHRSKNVHLYRQGEINLILNNEPNSIASYFAAEHGPSVCGMAFRVKDSQKAYNRALELGAQPIHIDTGPMELNLPAIKGIGGAPLYLIDRFGEGSSIYDIDFVYLEGVERNPVGAGLKVIDHLTHNVYRGRMVYWANFYEKLFNFREARYFDIKGEYTGLTSKAMSAPDGMIRIPLNEESSKGAGQIEEFLMQFNGEGIQHVAFLTDDLVKTWDALKKIGMRFLTAPGDEYYEMLEGRLPDHGEPVDQLQARGILLDGSSVEGDKRLLLQIFSEKLMGPVFFEFIQRKGDDGFGPDSFKVLFESIERDQVRRGVLTAD
modifications: mutant HPPD polypeptide
For B1, the “Residual turnover [%]” value was 59%, the Turnover was 0.126 and the Residual turnover was 0.074.

B2: SEQ ID NO:12 (protein)
chain: MADLYENPMGLMGFEFIEFASPTPGTLEPIFEIMGFTKVATHRSKNVHLYRQGEINLILNNEPNSIASYFAAEHGPSVCGMAFRVKDSQKAYNRALELGAQPIHIDTGPMELNLPAIKGIGGAPLYLIDRFGEGSSIYDIDFVYLEGVERNPVGAGLKVIDHLTHNVYRGRMVYWANFYEKLFNFREARYFDIKGEYTGLTSKAMSAPDGMIRIPLNEESSKGAGQIEEFLMQFNGEGIQHVAFLTDDLVKTWDALKKIGMRFMTAPGDEYYEMLEGRLPDHGEPVDQLQARGILLDGSSVEGDKRLLLQIFSERLMGPVFFEFIQRKGDDGFGPDSFKVLFEQIERDQVRRGVLTAD
modifications: mutant HPPD polypeptide
B2 was tested, and the “Residual turnover [%]” value was 40%, the Turnover was 0.189 and the Residual turnover was 0.076.

B3: SEQ ID NO:16 (protein)
chain: MADLYENPMGLMGFEFIEFASPTPGTLEPIFEIMGFTKVATHRSKNVHLYRQGEINLILNNEPNSIASYFAAEHGPSVCGMAFRVKDSQKAYNRALELGAQPIHIDTGPMELNLPAIKGIGGAPLYLIDRFGEGSSIYDIDFVYLEGVERNPVGAGLKVIDHLTHNVYRGRMVYWANFYEKLFNFREARYFDIKGEYTGLTSKAMSAPDGMIRIPLNEESSKGAGQIEEFLMQFNGEGIQHVAFLTDDLVKTWDALKKIGMRFMTAPGDEYYEMLEGRLPDHGEPVDQLQARGILLDGSSVEGDKRLLLQIFSERLMGPVFFEFIQRKGDDGFGPDSFKVLFESMERDQVRRGVLTAD
modifications: mutant HPPD polypeptide
For B3, the “Residual turnover [%]” value was 46%, the Turnover was 0.181 and the Residual turnover was 0.083.

B4: SEQ ID NO:9 (protein)
chain: MADLYENPMGLMGFEFIEFASPTPGTLEPIFEIMGFTKVATHRSKNVHLYRQGEINLILNNEPNSIASYFAAEHGPSVCGMAFRVKDSQKAYNRALELGAQPIHIDTGPMELNLPAIKGIGGAPLYLIDRFGEGSSIYDIDFVYLEGVERNPVGAGLKVIDHLTHNVYRGRMVYWANFYEKLFNFREARYFDIKGEYTGLTSKAMSAPDGMIRIPLNEESSKGAGQIEEFLMQFNGEGIQHVAFLTDDLVKTWDALKKIGMRFLTAPGDEYYEMLEGRLPDHGEPVDQLQARGILLDGSSVEGDKRLLLQIFSETLMGPVFFEFIQRKGDDGFGPDSFKVLFESIERDQVRRGVLTAD
modifications: mutant HPPD polypeptide
In the case of B4, the “Residual turnover [%]” value is reported as 65%, the Turnover is reported as 0.109 and the Residual turnover is reported as 0.071.

B5: SEQ ID NO:11 (protein)
chain: MADLYENPMGLMGFEFIEFASPTPGTLEPIFEIMGFTKVATHRSKNVHLYRQGEINLILNNEPNSIASYFAAEHGPSVCGMAFRVKDSQKAYNRALELGAQPIHIDTGPMELNLPAIKGIGGAPLYLIDRFGEGSSIYDIDFVYLEGVERNPVGAGLKVIDHLTHNVYRGRMVYWANFYEKLFNFREARYFDIKGEYTGLTSKAMSAPDGMIRIPLNEESSKGAGQIEEFLMQFNGEGIQHVAFLTDDLVKTWDALKKIGMRFMTAPGDEYYEMLEGRLPDHGEPVDQLQARGILLDGSSVEGDKRLLLQIFSEQLMGPVFFEFIQRKGDDGFGPDSFKVLFEQIERDQVRRGVLTAD
modifications: mutant HPPD polypeptide
For B5, the “Residual turnover [%]” value was 46%, the Turnover was 0.183 and the Residual turnover was 0.085.

B6: SEQ ID NO:10 (protein)
chain: MADLYENPMGLMGFEFIEFASPTPGTLEPIFEIMGFTKVATHRSKNVHLYRQGEINLILNNEPNSIASYFAAEHGPSVCGMAFRVKDSQKAYNRALELGAQPIHIDTGPMELNLPAIKGIGGAPLYLIDRFGEGSSIYDIDFVYLEGVERNPVGAGLKVIDHLTHNVYRGRMVYWANFYEKLFNFREARYFDIKGEYTGLTSKAMSAPDGMIRIPLNEESSKGAGQIEEFLMQFNGEGIQHVAFLTDDLVKTWDALKKIGMRFMTAPGDEYYEMLEGRLPDHGEPVDQLQARGILLDGSSVEGDKRLLLQIFSEKLMGPVFFEFIQRKGDDGFGPDSFKVLFEQIERDQVRRGVLTAD
modifications: mutant HPPD polypeptide
In the case of B6, the Turnover is reported as 0.018 and the Residual turnover is reported as 0.021.

B7: SEQ ID NO:15 (protein)
chain: MADLYENPMGLMGFEFIEFASPTPGTLEPIFEIMGFTKVATHRSKNVHLYRQGEINLILNNEPNSIASYFAAEHGPSVCGMAFRVKDSQKAYNRALELGAQPIHIDTGPMELNLPAIKGIGGAPLYLIDRFGEGSSIYDIDFVYLEGVERNPVGAGLKVIDHLTHNVYRGRMVYWANFYEKLFNFREARYFDIKGEYTGLTSKAMSAPDGMIRIPLNEESSKGAGQIEEFLMQFNGEGIQHVAFLTDDLVKTWDALKKIGMRFMTAPGDEYYEMLEGRLPDHGEPVDQLQARGILLDGSSVEGDKRLLLQIFSEQLMGPVFFEFIQRKGDDGFGPDSFKVLFESMERDQVRRGVLTAD
modifications: mutant HPPD polypeptide
In the case of B7, the “Residual turnover [%]” value is reported as 39%, the Turnover is reported as 0.161 and the Residual turnover is reported as 0.062.

B8: SEQ ID NO:14 (protein)
chain: MADLYENPMGLMGFEFIEFASPTPGTLEPIFEIMGFTKVATHRSKNVHLYRQGEINLILNNEPNSIASYFAAEHGPSVCGMAFRVKDSQKAYNRALELGAQPIHIDTGPMELNLPAIKGIGGAPLYLIDRFGEGSSIYDIDFVYLEGVERNPVGAGLKVIDHLTHNVYRGRMVYWANFYEKLFNFREARYFDIKGEYTGLTSKAMSAPDGMIRIPLNEESSKGAGQIEEFLMQFNGEGIQHVAFLTDDLVKTWDALKKIGMRFMTAPGDEYYEMLEGRLPDHGEPVDQLQARGILLDGSSVEGDKRLLLQIFSEKLMGPVFFEFIQRKGDDGFGPDSFKVLFESMERDQVRRGVLTAD
modifications: mutant HPPD polypeptide
B8 was tested, and the “Residual turnover [%]” value was 40%, the Turnover was 0.18 and the Residual turnover was 0.072.

B9: SEQ ID NO:8 (protein)
chain: MADLYENPMGLMGFEFIEFASPTPGTLEPIFEIMGFTKVATHRSKNVHLYRQGEINLILNNEPNSIASYFAAEHGPSVCGMAFRVKDSQKAYNRALELGAQPIHIDTGPMELNLPAIKGIGGAPLYLIDRFGEGSSIYDIDFVYLEGVERNPVGAGLKVIDHLTHNVYRGRMVYWANFYEKLFNFREARYFDIKGEYTGLTSKAMSAPDGMIRIPLNEESSKGAGQIEEFLMQFNGEGIQHVAFLTDDLVKTWDALKKIGMRFLTAPGDEYYEMLEGRLPDHGEPVDQLQARGILLDGSSVEGDKRLLLQIFSEQLMGPVFFEFIQRKGDDGFGPDSFKVLFESIERDQVRRGVLTAD
modifications: mutant HPPD polypeptide
In the case of B9, the “Residual turnover [%]” value is reported as 66%, the Turnover is reported as 0.124 and the Residual turnover is reported as 0.082.

B10: SEQ ID NO:13 (protein)
chain: MADLYENPMGLMGFEFIEFASPTPGTLEPIFEIMGFTKVATHRSKNVHLYRQGEINLILNNEPNSIASYFAAEHGPSVCGMAFRVKDSQKAYNRALELGAQPIHIDTGPMELNLPAIKGIGGAPLYLIDRFGEGSSIYDIDFVYLEGVERNPVGAGLKVIDHLTHNVYRGRMVYWANFYEKLFNFREARYFDIKGEYTGLTSKAMSAPDGMIRIPLNEESSKGAGQIEEFLMQFNGEGIQHVAFLTDDLVKTWDALKKIGMRFMTAPGDEYYEMLEGRLPDHGEPVDQLQARGILLDGSSVEGDKRLLLQIFSETLMGPVFFEFIQRKGDDGFGPDSFKVLFEQIERDQVRRGVLTAD
modifications: mutant HPPD polypeptide
B10 was tested, and the “Residual turnover [%]” value was 38%, the Turnover was 0.168 and the Residual turnover was 0.064.
